Data on 20 sequences can be found in the DeepSol protein solubility set.

This data set can be described thus: soluble on expression in E. coli; label from the status in PepcDB or PDB records.
For “ALSAKLTLDKVDLKGKRVIMRVDFNVPMKNNQITNNQRIKAAIPSIKHCLDNGAKSVVLMSHLGRPDGIPMPDKYSLEPVADELKSLLNKDVIFLKDCVGPEVEQACANPDNGSIILLENLRFHVEEEGKGKDSSGKKISADPAKVEAFRASLSKLGDVYVNDAFGTAHRAHSSMVGVNLPQKASGFLMKKELDYFSKALEKPERPFLAILGGAKVKDKIQLIKNMLDKVNFMIIGGGMAYTFLKELKNMQIGASLFDEEGATIVKEIMEKAEKNGVKIVFPVDFVTGDKFDENAKVGQATIESGIPSGWMGLDCGPESIKINAQIVAQAKLIVWNGPIGVFEWDAFAKGTKALMDEVVKATSNGCVTIIGGGDTATCCAKWGTEDKVSHVSTGGGASLELLEGKILPGVEALSNM”, the “soluble on expression in E. coli” value is recorded as “soluble”. As for “MAHHHHHHMKGVKFRDNFVKLKEEGPRNATTTNFYGSYFLSENEHLFDINEFEKNLEMKMHKNEENLLILEVKNLNVSIANALRRIMLAEVPTIAIEKVNIFQNTGIIADEILCHRLGLIPFKFDADLINFKEEYEKYNHLNCFCFKLHVKFTKKAGSSETCQSIYSRDLKWCPINEHQKARFQKNPPRVVDDNILITKLSNGQEIELICFLEKGIGKTHAKWSPVCTAVYKMYPAFSFNTCEKFTQEEKKDLVNICPKNVFDVEDSDTLVAKNPLNCSSCRVCIEKYPKKISFEKVKNHFIFTIESTGCFSSADIFRKALLILKDKVVSVKEVLEDQTKA”, the entry is “not soluble”; as for “MGSDKIHHHHHHMAKLCHKPLHILFFRHSLLGRGGDKMVVCQANALARRGHQVTIRTATLATPFSLDDRIEINLTGSSSVAATLMDLFKGRFSFDLLIVDIIPLAVLAGIRFGRTKVIYYVQDWDVSYYRSLAFRSLIRLLYFVERSFLRIPVIVVSEHLLGKIGRTGIGATYVVENGIDLTLFNSKGRLHPAFAPGHIPTFLLFIRNDWRKGSDLALKVVKKLADRYPHAFGVVAVGNRPAIRPSQIDWIDKGFMDERQIADLMKQCDLFLYPSRHEGFGLMALEAFACGCLVVTTTAVGFAHDIENSLVAEVDDEQGLYSRLCCLLEKQIEIAPLVKKAEEFASEHPLELCMDRFCSVIEELNQ”, “not soluble”; as for “SNPLCSRCNRVVYPTEKVNCLDKYWHKGCFSCEVCKMTLNMKNYKGFEKRPYCNAHYPKTSFTSVADTPENLRLKQQSKMQSQVLYKEEFEKNKGKGFSVVADTPELQRIKKTQDQISNIKYHEDFEKSRSGGDTPLPLTPQLNTPPAYPSSAASQNYHYEPEPVRPAAAAPPPSSGKRYRAVYDYTAADEDEVSFMDGDMIVDVQQIDEGWMYGRVERTGQQGMLPANYVEAM”, “soluble”.

For “MKVDRPSRSPFPQRIPQKFWKKINDENWIDVFDCKKIKERKQEFFWYKLDPLDLAKAVAMASQMNDRGVIPYPTPTLNDALNDHAALIRALNDSSIKKLFKEVRFFCTMRKRFSTIRNNPISVKREPTNF”, the “soluble on expression in E. coli” value was “soluble”.

For “LSEKEFFMSRAIKLAKLGWGKTNPNPLVGAVVVKDGKIIAEGYHKQLGGPHAEVEAFNNAKEDVAGGTLYVNLEPCSHYGRTPPCAQKIIDVGIKKVVAAIKDPNPKVSGRGFEMLKNAGIEVEVGVLEEEAIRLNEIFITYIVKKKPFVILKTAMTLDGKIATASGDSKWVTGEKARNHVHVIRDRVAAVMVGINTVLKDNPYLTTRLPDKEGSDPVRIVVDSKGSIPLDSNVINSNSKAGVILATTSRIDKEKEKMLIDKGVKIIKADGSDGRVDLKLLMDELYKLEIDSVLLEGGGTLNSSAISAGIVDKVMCFISPKIVGGENAPTSVEGIGALRMCEAIGVKNISVVKFGEDILLEGYIE”, the “soluble on expression in E. coli” value was “soluble”.

As for “MGSDKIHHHHHHMNNESLTLDAYPVEVEFPDIRPYAEGNCGIPYVFTFDSGVAGPHVMVNALTHGNEVCGAITVKGLLDAGVKPRRGRVTFAFANVDAYACFDPARPDASRFVDQDFNRVWTSAVLDDASRDSSELRRARAMRPVIDTVDLLLDLHSMHEKSRPLIVSGPLDKGIALARALGAPADVIVDEGHPEGRRMRDYADFGDPASARNALLIECGQHWETSAVTVARDSAARFLLNAGVIDAQDVPTGWLQPLAATQRVVRVTEPVVANSMDFRFAGPYTGLETFMEAGTVIGWRDGEPVVTPYPNCVLVMPSLRQLRPGVTVVRLGQLEA”, the “soluble on expression in E. coli” value was “not soluble”.

With “MISRTQRLLSLSTAMLLATTAAAVAEPSEELIAAAKKEGTLTTIALPHNWCGYGDVIAGFKAKYGIEVNELNPDAGSGDEIEAIKANKGNTGPQAPDVIDVGLSFGPSAKAEGLIQPYKVSTWDTIPDTAKDPEGYWYGDYYGVLSFVVNTDIVKDVPKDWADLKKSDYANSVALAGDPRASNQAVQAVYAAGLAAGETDAAKAGEAGLAFFAEVNKAGNFVPVIGKSASLAQGSTPIIIAWDYNGLSWRDSLNGNPPVEVVVPASGVVAGVYVQAISAFAPHPNAAKLWMEYLYSDEGQLGWLKGYCHPIRFNDLVKNGKVPKEMLDKLPPAESYEKAVFPTLDEQAKGKEAITTKWDSVVGASVQ”, the “soluble on expression in E. coli” value is “not soluble”.

For “MSDSDIPSSTLYKDNVDWKDITPIYPSKEEEVAVKIAVTEDFTDAFAYFRAILIKNEKSDRVMALLEDCIRLNPANYTVWQYRRVCLTELGWDLKKEMRYLSDIIQESPKNYQVWHHRRFIVETIGESAVNDELHFCSEVIRDENKNYHAWQHRQWVVRTFKVPLEKELTFALHMLLLDNRNNSAYNYRYFLMTLYDKTEDASQLDIEINLAKKFIENIPNNESAWNYLAGLLITNGVTSNSDVVSFVEDLYETTPEEKRSPFLLAFIADMMLENIENQKSAEESAGRAKKLYKDLQSIDPVRVNYYRHQSLLAQTMLIKAQTKVTAK”, the “soluble on expression in E. coli” value was “not soluble”. For “KFGIARSGAMDEDALRMANILLGNKQDEAGIELCLKGGKYEFLDENYFVLSGAEFEAKLDNQKIKTCKVYQANKGDILELDLAKIGFRGYLCVAGGFEVKSFLNSKSSDAKMGAGVFEGRALQKDDILNTHNTFIPFNLEARECENPLFKSPKEPIIRVILGTNEDAFTQKGIETFLNTTYKVGLKSDRMAIYAESSESIEHKNSADIISDPAVFGSIQVPKSGIPIILMAGRQSTGGYTKIATVIENDLSLLAQAKLGSSFKFQSISMQEALELYKQREMK” the value was “not soluble”.

In the case of “MNTNSYSMAQDNEEITKLEAPSTNKTNTLLSQSHAVVNHGDNGQINGKKTKEIHRVKRASDKKVSSKRVSRTWKIPKYPKKQPKSDQEHPGFNLDYMQPTTHPPHHN”, the “soluble on expression in E. coli” value was “soluble”. Consider “MSKPGRTILASKVAETFNTEIINNVEEYKKTHNGQGPLLVGFLANNDPAAKMYATWTQKTSESMGFRYDLRVIEDKDFLEEAIIQANGDDSVNGIMVYFPVFGNAQDQYLQQVVCKEKDVEGLNHVYYQNLYHNVRYLDKENRLKSILPCTPLAIVKILEFLKIYNNLLPEGNRLYGKKCIVINRSEIVGRPLAALLANDGATVYSVDVNNIQKFTRGESLKLNKHHVEDLGEYSEDLLKKCSLDSDVVITGVPSENYKFPTEYIKEGAVCINFACTKNFSDDVKEKASLYVPMTGKVTIAMLLRNMLRLVRNVELSKEK”, for which the “soluble on expression in E. coli” value is recorded as “soluble”. As for “QRRQMEMQSVNLVHEALSNQRLELFAQRVMNLQSPESLMYFEILVRIRDAQGNYVSPAIFIPASERYNIAHWIDKQVINQALEWFEQRPDVVEKLGRCSINLSGQSMGNQEFIDFLFERLKNSTMPCEKICLEITETAAMGNLDQAIDFFTRAKSLGCMIALDDFGSGLSSFGYLKKLPVDIVKIDGLFVRDIDVNEMDRVMVRSINDLAKQLGKVTVAEFVENEQVMQHLIDLGVDYGQGYGIGHPKPLAELVENLSSL”, the entry is “not soluble”. On to “MGSDKIHHHHHHMKWYADYLSIYDKPFTQAPQAVINQVKDKVRQLATHAPLVSVVAIAHNEEKRILSCLWSLCENQHNYPVEILVINNHSTDHTEEVLKELGVTYFNEYRKGPGFARQCGLNHARGKYHLCIDADTLYPPQYISTMIKVLQDKEVAGAYALWSFLPNEHHLGLFFYETLRDLYLKIQNLNRPELNVRGMAFAFHTETARKEGFRTDILRGEDGSLALALKKYGKLRFVTARKARVLTGYGTISADGSLFSSFKKRAIKGLRSFTALFYSKNNYEDEDSNLIK”, for which the “soluble on expression in E. coli” value was “not soluble”.

“MKVVAVGGGTGLSTLLKGLKNIDSFEITAVVSVTDEGGSSGKLRKELNVPPPGDVRNNIVALAKDEDLLAKLMSYRFSEGSFKGHSLGNLIIAALTKIEGSFSEAIRILERVLAIKGRVLPVSEDHARLVARFEDGEEVIGETNIVRKGGKIVEVRLDRPIDALPEVLEAIERADIIIFGPGSLYTSIITNVLVNGVKDAIKKSKAKKIYVCNLMTQPGETTGYRVSDHVKELERYLEQSVDFVLVNTRKPSEEVLERYRKEGSDFVEIDAENIQNTILAEPFLVEIVDPSDGQRKIRHDSVKLADVIERISRW”: the “soluble on expression in E. coli” value is on record as “soluble”. As for “MGQEKLLFDQKYKIIKGEKKEKKKNQRANRREHQQKREIMRFKKSFTCIDMHTEGEAARIVTSGLPHIPGSNMAEKKAYLQENMDYLRRGIMLEPRGHDDMFGAFLFDPIEEGADLGIVFMDTGGYLNMCGHNSIAAVTAAVETGIVSVPAKATNVPVVLDTPAGLVRGTAHLQSGTESEVSNASIINVPSFLYQQDVVVVLPKPYGEVRVDIAFGGNFFAIVPAEQLGIDISVQNLSRLQEAGELLRTEINRSVKVQHPQLPHINTVDCVEIYGPPTNPEANYKNVVIFGNRQADRSPCGTGTSAKMATLYAKGQLRIGETFVYESILGSLFQGRVLGEERIPGVKVPVTKDAEEGMLVVTAEITGKAFIMGFNTMLFDPTDPFKNGFTLKQYIWSSSVDKLAAALEHHHHHH”, the “soluble on expression in E. coli” value is listed as “soluble”. As to “QVSLRESGGGLVQPGRSLRLSCTASGFTFRHHGMTWVRQAPGKGLEWVASLSGSGTKTHFADSVKGRFTISRDNSNNTLYLQMDNVRDEDTAIYYCAKAKRVGATGYFDLWGRGTLVTVSSASTKGPSVFPLAPSSKSTSGGTAALGCLVKDYFPEPVTVSWNSGALTSGVHTFPAVLQSSGLYSLSSVVTVPSSSLGTQTYICNVNHKPSNTKVDKKAEP”, the “soluble on expression in E. coli” value is reported as “soluble”.

Consider “MGSDKIHHHHHHVGAGHPRKELEGKAKATKQQQDLKKLLSGQKHVAFPQQVVALPFDASANLTALVYEPLLPLQYSDYKGAQLITGLRKIHEKNVVHGDISVRNIMQSKQGVAKFIDLNPMDPLSESKKSRDIRYLGKSLLEMKFAKSLEQENHRMLSYIAKHEDIYSKAQSNQAYQELKYNNAWFTYSLTQSGSIEKVPGDMDTFLELLGMEEIIKRDLEKQAGEVFSFDGKFAKFISEQPDPENTDFTAMALYMLEHGQIPNNADGILAKLLRVKQ”, for which the “soluble on expression in E. coli” value is given as “not soluble”.

As for “MGSFMTDIAVIINNRAKNAHRMEDYLSELRAHDIDYQLYKADPQQLEKNIQHCCSKYPLLLIGGGDGTVRSAAQWCSNTSVILGVLPLGTMNHFSKELNLPSTTEELIAAIVEKTTTTIDVAEVNGH”, the “soluble on expression in E. coli” value is on record as “not soluble”.

Take “MSLETSTQCTSAVAHTSGRRNYNEDRICVATNIEGADLFAVFDGHNGHEAATLCRNKLKQVYGSCHGNINDTFQSLNDIVSKETTAGCTATIVAVKQNSIEVGNCGDSPAYVIRKDKSIEKITYDHKATDPKEEEMIVKNGGVVMNLFGTKRVNGQIMVTRSIGDRSLHPPMTSIPTTKIISKEDIISICVMSDGVTDALTDLEIHDIMTNGQPIEIRAQTIRNQAYKEGSKDNICVVVVDLEGHHHHHH”: the “soluble on expression in E. coli” value is “soluble”.
